In US20230212266A1 (FRED HUTCHINSON CANCER CENTER, published 2023):

What was measured:
[1] = biological target: T1, SARS-CoV-2 receptor binding domain (RBD) (SARS-CoV-2, UniProt P0DTC2 319-591); experiment: BLI, mAb on anti-human Fc probe, antigen in solution
[2] = biological target: T1, SARS-CoV-2 receptor binding domain (RBD); experiment: as above; remark: listed apart in the source
[3] = biological target: T1, SARS-CoV-2 receptor binding domain (RBD); experiment: BLI: mAb on anti-human Fc probe, dipped in the antigen
[4] = biological target: T1, SARS-CoV-2 receptor binding domain (RBD); experiment: as above; remark: listed apart in the source
[5] = biological target: T1, SARS-CoV-2 receptor binding domain (RBD); experiment: BLI, mAb on anti-human Fc probe, antigen in solution; remark: listed apart in the source
[6] = biological target: T1, SARS-CoV-2 receptor binding domain (RBD); experiment: BLI: mAb on anti-human Fc probe, dipped in the antigen; remark: listed apart in the source
[7] = biological target: T1, SARS-CoV-2 receptor binding domain (RBD); experiment: BLI, mAb on anti-human Fc probe, antigen in solution; remark: listed apart in the source
[8] = biological target: T1, SARS-CoV-2 receptor binding domain (RBD); experiment: BLI: mAb on anti-human Fc probe, dipped in the antigen; remark: listed apart in the source
[9] = biological target: T1, SARS-CoV-2 receptor binding domain (RBD); experiment: BLI, mAb on anti-human Fc probe, antigen in solution; remark: listed apart in the source
[10] = biological target: T1, SARS-CoV-2 receptor binding domain (RBD); experiment: BLI: mAb on anti-human Fc probe, dipped in the antigen; remark: listed apart in the source
[11] = biological target: T1, SARS-CoV-2 receptor binding domain (RBD); experiment: as above; remark: listed apart in the source
[12] = biological target: T1, SARS-CoV-2 receptor binding domain (RBD); experiment: as above; remark: listed apart in the source
[13] = biological target: T1, SARS-CoV-2 receptor binding domain (RBD); experiment: as above; remark: listed apart in the source
[14] = biological target: T1, SARS-CoV-2 receptor binding domain (RBD); experiment: as above; remark: listed apart in the source
[15] = biological target: T1, SARS-CoV-2 receptor binding domain (RBD); experiment: as above; remark: listed apart in the source
[16] = biological target: T1, SARS-CoV-2 receptor binding domain (RBD); experiment: as above; remark: listed apart in the source
[17] = biological target: T1, SARS-CoV-2 receptor binding domain (RBD); experiment: as above; remark: listed apart in the source
[18] = biological target: T1, SARS-CoV-2 receptor binding domain (RBD); experiment: BLI, mAb on anti-human Fc probe, antigen in solution; remark: listed apart in the source

B1: CV21 (antibody, V domains shown)
VH: not shown
VL: EIVLTQSPATLSLSPGERATLSCRASQSVSSYLAWYQQKPGQAPRLLIYDASNRATGIPARFSGSGSGTDFTLTISSLEPEDFAVYYCQQRSNWPLTFGGGTKVEIK
notes: expressed as IgG
B1: no binding [1].

B2: CV15 (antibody, V domains shown)
VH: EVQLVESGGGLVQPGGSLRLSCAASGFTFSSYWMSWVRQAPGKGLEWVANIKQDGSEKYYVDSVKGRFTISRDNAKNSLYLQMNSLRAEDTAVYYCARDFNSYQLLWYYYYGMDVWGQGTTVTVSS
VL: QSALTQPRSVSGSPGQSVTISCTGTSSDVGGYNYVSWYQQHPGKAPKLMIYDVSKRPSGVPDRFSGSKSGNTASLTISGLQAEDEADYYCCSYAGSYTWVFGGGTKLTVL
notes: expressed as IgG
B2: no binding [2].

B3: CV2-67 (antibody, V domains shown)
VH: QVQLQESGPGLVKPSETLSLTCTVSGGSISSYYWSWIRQPPGKGLEWIGYIYYSGSTNYNPSLKSRVTISVDTSKNQFSLKLSSVTAADTAVYYCAGTYYDFWSGSTNYYGMDVWGQGTTVTVSS
VL: not shown
B3: no binding [3].

B4: CV2-63 (antibody, V domains shown)
VH: QVQLVESGGGVVQPGRSLRLSCAASGFTFSSYAMHWVRQAPGKGLEWVAVISYDGDNKYYADSVKGRFTISRDNSKNTLYLQMNSLRAEDTAVYYCARDPTAVTGPFDYWGQGTLVTVSS
VL: SYELTQPLSVSVALGQTARITCGGNNIGSKNVHWYQQKPGQAPVLVIYRDSNRPSGIPERFSGSNSGNTATLTISRAQAGDEADYFCQVWDSSTVVFGGGTKLTVL
B4: no binding [4].

B5: CV22 (antibody, V domains shown)
VH: EVQLVESGGGLVKPGGSLRLSCAASGFTFSSYSMNWVRQAPGKGLEWVSSISSSSSYIYYADSVKGRFTISRDNAKNSLYLQMNSLRAEDTAVYYCARDRESYDILTGYSMEGCFDYWGQGTLVTVSS
VL: QLVLTQSPSASASLGASVKLTCTLSSGHSSYAIAWHQQQPEKGPRYLMKLNSDGSHSKGDGIPDRFSGSSSGAERYLTISSLQSEDEADYYCQTWGTGIRVFGGGTKLTVL
notes: expressed as IgG
B5: no binding [5].

B6: CV2-64 (antibody, V domains shown)
VH: QLQLQESGPGLVKPSETLSLTCTVSGGSISSSSYYWGWIRQPPGKGLEWIGSIYYSGSTYYNPSLKSRVTISVDTSKNQFSLKLSSVTAADTAVYYCARLSGIFGVVIIPGFFDYWGQGTLVTVSS
VL: not shown
B6: no binding [6].

B7: CV18 (antibody, V domains shown)
VH: QVQLVQSGAEVKKPGASVKVSCKVSGYTLTELSMHWVRQAPGKGLEWMGGFDPEDGETIYAQKFQGRVTMTEDTSTDTAYMELSSLRSEDTAVYYCATTSPIVGAITWFDPWGQGTLVTVSS
VL: QSVLTQPPSVSAAPGQKVTISCSGSSSNIGNNYVSWYQQLPGTAPKLLIYDNNKRPSGIPDRFSGSKSGTSATLGITGLQTGDEADYYCGTWDSSLSAGPVFGGGTKLTVL
notes: expressed as IgG
B7: no binding [7].

B8: CV2-62 (antibody, V domains shown)
VH: EVQLVESGGGLVQPGGSLRLSCAASGFTFSSYEMNWVRQAPGKGLEWVSYISSSGSTIYYADSVKGRFTISRDNAKNSLYLQMNSLRAEDTAVYYCARVPRPPWDDFWSGYLYYFDYWGQGTLVTVSS
VL: DIQMTQSPSSLSASVGDRVTITCRASQGISNYLAWYQQKPGKVPKLLIYAASTLQSGVPSRFSGSGSGTDFTLTISSLQPEDVATYYCQKYNSAPPGFTFGPGTKVDIK
B8: no binding [8].

B9: CV17 (antibody, V domains shown)
VH: not shown
VL: QSALTQPASVSGSPGQSITISCTGTSSDVGSYNLVSWYQQHPGKAPKLMIYEGSKRPSGVSNRFSGSKSGNTASLTISGLQAEDEADYYCCSYAGSSTYVFGTGTKVTVL
notes: expressed as IgG
B9: no binding [9].

B10: CV2-74 (antibody, V domains shown)
VH: EVQLVQSGAEVKKPGESLRISCKGSGYSFTSYWISWVRQMPGKGLEWMGRIDPSDSYTNYSPSFQGHVTISADKSISTASLQWSSLKASDTAMYYCARQKRDGTTWAFDYWGQGTLVTASS
VL: not shown
B10: no binding [10].

B11: CV2-58 (antibody, V domains shown)
VH: QVQLVQSGAEVKKPGSSVKVSCKASGGTFSSYAISWVRQAPGQGLEWMGRIIPILDITNYAQKFQGRVTITADKSTSTAYMELSSLRSEDTAVYYCARGLWRSSIAGLHVPYGMDVWGQGTTVTVSS
VL: QSVLTQPPSVSAAPGQKVTISCSGSSSNIGNNYVSWYQQLPGTAPQLLIYDNNKRPSRIPDRFSGSKSGTSATLGITGLQTGDEAVYYCGTWDSSLSAVVFGGGTKLTVL
B11: no binding [11].

B12: CV2-59 (antibody, V domains shown)
VH: QVQLVQSGAEVKKPGASVKVSCKVSGYTLTELSMHWVRQAPGKGLEWMGGFDPEDGETIYAQKFQGRVTMTEDTSTDTAYMELSSLRSEDTAVYYCATGPTVTTVTNWFDPWGQGTLVTVSS
VL: QSVLTQPPSVSAAPGQKVTISCSGSSSNIGNNYVSWYQQLPGTAPKLLIYDNNKRPSGIPDRFSGSKSGTSATLGITGLQTGDEADYYCGTWDSSLSAEVFGTGTKVTVL
B12: no binding [12].

B13: CV2-60 (antibody, V domains shown)
VH: QVQLVQSGAEVKKPGASVKVSCKASGYNFISYGISWVRQAPGQGLEWMGWISAYNGNTNYAQKLQGRVTMTTDTSTSTAYMELRSLRSDDTAVYYCARVRIFGVVIIVDTAMVLDYWGQGTLVTVSS
VL: QSVLTQPPSVSAAPGQKVTISCSGSSSNIGNNYVSWYQQLPGTAPKLLIYENNKRPSGIPDRFSGSKSGTSATLGITGLQTGDEADYYCGTWDSSLSAGVFGGGTKLTVL
B13: no binding [13].

B14: CV2-73 (antibody, V domains shown)
VH: QVQLQESGPGLVKPSETLSLTCTVSGGSVSSGSYYWSWIRQPPGKGLEWIGYIYYSGSTNYKYSLKSRVTISVDTSKNQFSLKLSSVTAADTAVYYCAREKGGTEWEFNDAFDIWGQGTMVTVSS
VL: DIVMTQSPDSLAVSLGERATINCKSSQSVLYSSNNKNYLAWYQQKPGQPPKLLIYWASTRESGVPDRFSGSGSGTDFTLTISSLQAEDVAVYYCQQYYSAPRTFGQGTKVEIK
B14: no binding [14].

B15: CV2-70 (antibody, V domains shown)
VH: QVQLVQSGAEVKKPGSSVKVSCKASGGTFSSYAITWVRQAPGQGLEWMGGIIPIFGTANYAQKFQGRLTITADDSTSTAYMELSSLKSEDTAVYYCARFRAYDSSGYGPDYWGQGTLVTVSS
VL: EIVLTQSPATLSLSPGERATLSCRASQSVSSYLAWYQQKPGQAPRLLIYDASNRATGIPARFSGSGSGTDFTLTISSLEPEDFAVYYCQQRSNWPPSITFGQGTRLEIK
B15: no binding [15].

B16: CV2-72 (antibody, V domains shown)
VH: EVQLVESGGGLVQPGGSLRLSCAASGFTVSTNYMSWVRQAPGKGLEWVSVIYSGGSTYYVDSVKGRFTISRDNSKNTLYLQMNSLRAEDTAVYYCASTNSGSYSHVFDIWGQGTMVTVSS
VL: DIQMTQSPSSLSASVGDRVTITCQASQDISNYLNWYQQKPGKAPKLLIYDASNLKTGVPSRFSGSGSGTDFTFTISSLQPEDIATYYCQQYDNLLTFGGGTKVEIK
B16: no binding [16].

B17: CV2-69 (antibody, V domains shown)
VH: EVQLLESGGGLVQPGGSLKLSCAASGFTFNSYAMTWVRQAPGKGLEWLSTISGSGGRTYYADSVKGRFAISRDNSKNTVFLQMSTLRAEDTAVYFCARDFYGLESFYPGIDSWGQGTLVTVSS
VL: SYELTQPSSVSVFPGQTARITCSGDVLEKKYARWFQQKPGQAPLLVIYKDSERPSGIPERFFGSSSGTTVTLTISGAQVEDEADYYCYSAADNNRGVFGGGTKLTVL
B17: no binding [17].

B18: CV2 (antibody, V domains shown)
VH: QVQLVESGGGVVQPGRSLRLSCAASGFTFSSYAMHWVRQAPGKGLEWVAVISYDGSNKYYADSVKGRFTISRDNSKNTLYLQMNSLRAEDTAVYYCARVRGSYYLFDYWGQGTLVTVSS
VL: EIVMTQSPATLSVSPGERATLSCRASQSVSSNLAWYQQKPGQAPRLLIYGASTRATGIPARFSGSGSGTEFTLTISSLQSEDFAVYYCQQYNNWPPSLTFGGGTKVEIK
notes: expressed as IgG
B18: no binding [18].
